Experiments:
MS2 coat protein [1] = test: apparent KD of MS2 coat protein, switch ON state; designed switch direction (-1 OFF switch, 1 ON switch): -1; higher = weaker reporter binding; settings: FMN input: 0 or 200 uM; Eterna round: R93 (includes R88 designs)
Method in brief: (§1)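 Binding of SNAP-549-labelled MS2 coat protein was measured on designed RNA switches transcribed on-chip from Illumina sequencing clusters. The protein rose in twofold steps from 0.7 or 1.5 nM to 3 µM, with 0.8–1.5 h per step early on and 10–20 min per step later, in 100 mM Tris-HCl pH 7.5, 80 mM KCl, 4 mM MgCl2, without or with constant ligand. Each design's apparent KD is the median of fits to its normalised cluster binding curves.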

MS2 coat protein [2] = test: apparent KD of MS2 coat protein, switch OFF state (with FMN for OFF switches, without FMN for ON switches); designed switch direction (-1 OFF switch, 1 ON switch): -1; higher = weaker reporter binding; settings: FMN input: 0 or 200 uM; Eterna round: R93 (includes R88 designs)
Method in brief: as §1

Sequence	apparent KD of MS2 coat protein (MS2 coat protein [1]) [nM]	apparent KD of MS2 coat protein (MS2 coat protein [2]) [nM]
AAGAACUCAGGAUAUACAAAAUAAAAGAAAAGAAAGAAAGAACAUGAGGAUCACCCAUGUAGAAGGGAGAAGAA [Sobekkare Sobekneferu]	61.2	32.4
AGAAAGUGAGGAUAUACAUGAGGAUCACCCAUGUAGAACGAGAGUUAUAAAAAUGGAAGUAGAAGGCGCAAAAG [water's exclusion 3 2nd]	28.6	34.8
AAGAAGGCAGGAUAUACAUGAAAGAAAGAAAAGAAAAGAAAACAUGAGGAUCACCCAUGUAGAAGGGCCAAGAA [EteRNA is fun!]	29.8	109
AGUGAGUCAGGAUAUUCGUGAAGAAUAAAAGAAAUAACAACGAAGAAGGGACAUGAGGAUCACCCAUGUACACA [May 57]	33.6	25
GAGAAUGAAGGAUAUACAUGAGGAUCACCCAUGUAAGAGAAAGAGGGAAAAGAGAAAAGUAGAAGGUCAAAGAG [Ruby 73]	23.8	26
AGGGAACAUGAGGAUCACCCAUGUGAGGAUAUGCUAUGGAAAAUAAAAAUAAAACAUAGCAGAAGGCAUAAAAA [Denovo 10]	52.1	49.5
AAGAAGUCAGGAUAUGCUGAUAGUAAAUUGAGUGAUGAGUAGCAGAAGGGACAUGAGGAUCACCCAUGUAAAGA [Opal 12]	45.4	32.6
AAGAACGGAGGAUAUACAUGAGGAUCACCCAUGUAAAAGAAAGAGGGAAAAGAGAAAAGUAGAAGGCCGAAGAA [Haaibre Alexander IV]	28	60.3
AAAAUACAUGAGGAUCACCCAUGUCAGGAUAUUCCUGCAGCCUUGAAUAAGGGCUGGUGAAGAAGGGACGGUGA [Ancele]	33.4	84.6
AAAAAGGCAGGAUAUACAAAACAGGGAAACCUGAAAAGGAAACAUGAGGAUCACCCAUGUAGAAGGGCCAAGAA [Clint Eastwood]	31	30.9
CUCAUGUCAGGAUAUCAGUAGUAAAAAAAAAAAAUUACUACUGAGAAGGGACAUGAGGAUCACCCAUGUCCAUU [EX4 304: Super Stable 4]	53	36.9
AGAAAGCUAGGAUAUACCUGGAGGGUUCUAAAUGAAAUAAAACAUGAGGAUCACCCAUGUAGAAGGAGCCCGAA [Sobire]	18.3	16.6
AACAAGUGAGGAUAUCGGAAAAGUAAAUAAGUAAAACAAAACGAGAAGGCACAUGAGGAUCACCCAUGUAAAUA [JR_Exc004_Sub014]	17	17.4
AAGAAGGUAGGAUAUACAUGAGGAUCACCCAUGUAAAAGAAAGAAGGGAAAGAGAAAAGUAGAAGGACCAAGAA [Rudamon]	33.4	55.3
AAAAAGUGAGGAUAUACAUGAGGAUCACCCAUGUGUAUAAAAAAUUACACGAAAGAAUGUAGAAGGCACUAAAA [JL Mayanne Mod 3]	18.2	42.8
AAAAAGGGAGGAUAUACAUGAGGAUCACCCAUGUGUCAGACGAAAAAGAGUCUGAAGUGUAGAAGGCCCAAAAA [65%, Moding Exclusion3-cac2, 1]	25.9	40.7
AACAGUACAGGAUAUACAUGAGGAUCACCCAUGUCACAACAAAGCAGCGCAACACAAAGUAGAAGGGUAAUGGA [Ruby 15]	34.6	40.4
AAAAAGUCAGGAUAUGUACAAAAUAAAAUAAAAAUAAAAGUACAGAAGGGACAUGAGGAUCACCCAUGUAAAAA [Ex 4 May 11]	38.6	36.6
AACAAGUCAGGAUAUUCGAAAAGUAAAUAAGUAAAACAAAAGAAGAAGGGACAUGAGGAUCACCCAUGUAAAUA [JR_Exc004_Sub016]	46.1	27.9
AAAAAACAUGAGGAUCACCCAUGUGAGGAUAUGGAAAAGAAAAGAAAAGAAAGAAGAACCAGAAGGCACAAGAA [Khafre]	30	37.9
AAAAAGGCAGGAUAUACGAAGCUAAGACAAAUAAGCAAGGGACAUGAGGAUCACCCAUGUAGAAGGGCCAAAAA [Exclusion 2-01... 60% 3]	41.1	132
AAGAAGCGAGGAUAUACAUGAGGAUCACCCAUGUAAAAGAAAGAAAAGGGAAAGAAAAGUAGAAGGCGCAAGAA [Nebpehtire Ahmose I, Ahmosis I]	53	177
AAAGGGCGAGGAUAUACAUGAGGAUCACCCAUGUAAAAAACAUAAUAAAAGAAUUUAUGUAGAAGGCGCCCAAA [Ruby 60]	15.2	14.4

Sequence	apparent KD of MS2 coat protein (MS2 coat protein [1]) [nM]	apparent KD of MS2 coat protein (MS2 coat protein [2]) [nM]
AAGACUACAGGAUAUACAUGAGGAUCACCCAUGUAACUGACAAGCAGAGUACGGAGAAGUAGAAGGGUAGUCAA [Ruby 33]	20.3	30.1
ACAAGAUCAGGAUAUACAUGAGGAUCACCCAUGUAAAUCAAAAAGGGACUUACUUAAUGUAGAAGGGAUCAUGU [EX3 279: Random 15]	28.6	106
AGAAAACGAGGAUAUGCAAGGGAAGAAAGAAGAGAGAAAAAACAUGAGGAUCACCCAUGUAGAAGGUGUAAAAA [JR_Exc002_Sub1714]	57.5	37.1
AAAAAACAUGAGGAUCACCCAUGUGAGGAUAUGUAAAAUAAAAUAAAAAUAAAAAAAAGCAGAAGGUAUAUGAA [Amethyst 66]	31.4	40.6
CUCUAGUCAGGAUAUCGAAGAAAAGAAGAGAAAGAAAAGAACGAGAAGGGACAUGAGGAUCACCCAUGUAAGAA [EteRNA is fun!]	50	39.2
AAAAAGAGAGGAUAUGCAGGAGGUAAGGUCAAAAAAAAAAAACAUGAGGAUCACCCAUGUAGAAGGUUUAAAAA [Ecls2-VI]	29.3	23.5
AUAAAGUCAGGAUAUGUAAAAAUAACGAAAGUUAUAAAUAAACAGAAGGGACAUGAGGAUCACCCAUGUAAAAU [Meechl MS2 Ex4]	47	41.2
ACAGCUGAAGGAUAUACUUGGGAAAAAAAAAAAAAAAAAAAACAUGAGGAUCACCCAUGUAGAAGGUCAGCUGA [Brourd - Exclusion 2 - Sub 1]	82.2	43.5
AAAAAACAUGAGGAUCACCCAUGUGAGGAUAUCGAAAAGAAAAGAAAAGAAAGAAGAACGAGAAGGCACAAGAA [Sneferu]	36.6	48
AAAAACAGAGGAUAUACAAAAUGAUGACGAAAGUCAUCAAAACAUGAGGAUCACCCAUGUAGAAGGCUGAAAAA [Mod of Meechl]	24.2	20.2
AAAAAAGGAGGAUAUACGUACAUGUCAAAAGACGUGAAGGGACAUGAGGAUCACCCAUGUAGAAGGUUUAAAAA [JL Wide Open 31]	49.1	18.3
AAUAUGGGAGGAUAUGCAUAGAUAAAGAAACAUGUUAAAACACAUGAGGAUCACCCAUGUAGAAGGCCCAUAUA [AJ 10]	103	335
AAAAAGUCAGGAUAUAUGCGAAAAAUAAAAAAAAUAAAAACAUAGAAGGGACAUGAGGAUCACCCAUGUUAAAA [Ex 4 May 17]	44.7	29.3
AAGAAGUGAGGAUAUCGAAGACAGACGAAAAGUCUGUCAAACGAGAAGGCACAUGAGGAUCACCCAUGUAAGAA [What have we learned so far?]	34.8	43.7
GCUUGUGUAGGAUAUACAUGAGGAUCACCCAUGUGAGAGAAAAAAGUGAGAAAGAAAAGUAGAAGGACGUGAGG [salish99-ex3-80]	86.5	76.5
AGUGAGUGAGGAUAUCACUGAACAACAAAACAAAUAACGAGUGAGAAGGCACAUGAGGAUCACCCAUGUACACA [May 67]	23.4	19.2
AAAAAGGUAGGAUAUACGAAAAAAAAGGGUAAAAAAUAAAAACAUGAGGAUCACCCAUGUAGAAGGACCAAAAA [Mat - Exclusion 2 - Tesla mod - D41]	30.5	36.7
AAAAAGUGAGGAUAUGUCAAAAGUCACAAAAGUGACAAAAGACAGAAGGCACAUGAGGAUCACCCAUGUGGAAA [Mod of Eli - Late G + early G segment 2]	32.1	28.6
AAAAAGUGAGGAUAUGUCAAAAGUCACAAAAGUGACAAAAGACAGAAGGCACAUGAGGAUCACCCAUGUGGGAA [Mod of Eli - Late G + early G segment 1]	56.1	121
AAAAAGUGAGGAUAUGGUAAAAAAAAAAAAAAAAAGCACCUCCAGAAGGCACAUGAGGAUCACCCAUGUCGAAA [Jolly's Folly 6 - Jieux - Exclusion 4]	24.4	31.3
AGGAAGUGAGGAUAUGCUGCUCGUCACUUGCGUGAUGAGUAGCAGAAGGCACAUGAGGAUCACCCAUGUAAAAA [Mat - Exaclusion 4 - Eli mod - D21]	46.7	48.9
AAGAACUCAGGAUAUACAUGAGGAUCACCCAUGUAAAAGAAAGAAGGGAAAGAGAAAAGUAGAAGGGAGAAGAA [Niumateped]	17.5	23.8
